Experimental data as given in PMC10342849, “Feruloyl Esterase (LaFae) from Lactobacillus acidophilus: Structural Insights and Functional Characterization for Application in Ferulic Acid Production” (International Journal of Molecular Sciences, 2023).
Each block holds one molecule with its values, some of them ahead of it.

Columns and labels:
[1] = molecular target: Feruloyl esterase (LaFae) from Lactobacillus acidophilus (Lactobacillus acidophilus); assay: SEC; gel filtration on HiPrep S-200R column in 20 mM Tris-HCl (pH 8.0), molecular weight from a standard curve of protein standards
[2] = molecular target: Feruloyl esterase (LaFae) from Lactobacillus acidophilus (Lactobacillus acidophilus); assay: AUC; 20 mM Tris-HCl (pH 8.0), ProteomeLab XL-A, sedimentation profile at 280 nm analysed with SEDFIT
[3] = substrate: CCCC(=O)Oc1ccc([N+](=O)[O-])cc1; assay: purified protein; assay type: biochemical, Lactobacillus acidophilus; conditions: hydrolysis; His6-tagged enzyme

stoichiometry N [1]: 2
percent of the sample in the dimer peak [2]: 95.3%
stoichiometry N [2]: 2
Molecule: Feruloyl esterase (LaFae) from Lactobacillus acidophilus (enzyme)

B1: LaFae (Lactobacillus acidophilus NCFM) (protein)
chain: MSRITIERDGLTLVGDREEPFGEIYDMAILMHGFTANRNTPLLRQIADNLRDENVASVRFDFNGHGESDGAFEDMTVCNEIADAQKILEYVRTDPHVRNIFLVGHSQGGVVASMLAGLYPDIVKKVVLLAPAAQLKDDALNGDTQGATYNPEHIPAAIPFHGKKLGGFYLRTAQVLPIYEIAKHYTNPVSIIVGSNDQVVAPKYSKKYDEVYENSELHMVPDADHSFTGQYKDSAVDLTAEFLKPLF
notes: His6-tagged, pET-21a (BamHI/XhoI), E. coli BL21(DE3); dimer in solution; catalytic triad Ser106, Asp197, His225
Km [3]: 1160 µM
